# Results from patent publication US20190276526A1 (AbbVie / Abbott, published 2019).
# T1: Rat RGMa-His (rat) (UniProt D4A188)
# T1 sequence: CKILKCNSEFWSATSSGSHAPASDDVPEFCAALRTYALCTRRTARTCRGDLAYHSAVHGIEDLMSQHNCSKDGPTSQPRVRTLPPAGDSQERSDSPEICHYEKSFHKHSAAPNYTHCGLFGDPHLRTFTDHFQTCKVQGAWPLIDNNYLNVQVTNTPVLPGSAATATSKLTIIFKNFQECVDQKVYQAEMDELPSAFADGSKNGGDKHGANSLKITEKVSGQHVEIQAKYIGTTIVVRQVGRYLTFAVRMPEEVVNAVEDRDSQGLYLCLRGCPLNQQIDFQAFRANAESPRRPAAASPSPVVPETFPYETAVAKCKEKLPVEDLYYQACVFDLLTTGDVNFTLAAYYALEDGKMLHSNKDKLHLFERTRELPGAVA
# T2: hRGMa-Fc (human, UniProt Q96B86 47-422, limits assumed, biotinylated in the neogenin ELISA and the MSD assay)
# T2 construct: also called biot-hRGMa-Fc; biotinylated hRGMa-Fc; not shown: Fc part
# T2 sequence: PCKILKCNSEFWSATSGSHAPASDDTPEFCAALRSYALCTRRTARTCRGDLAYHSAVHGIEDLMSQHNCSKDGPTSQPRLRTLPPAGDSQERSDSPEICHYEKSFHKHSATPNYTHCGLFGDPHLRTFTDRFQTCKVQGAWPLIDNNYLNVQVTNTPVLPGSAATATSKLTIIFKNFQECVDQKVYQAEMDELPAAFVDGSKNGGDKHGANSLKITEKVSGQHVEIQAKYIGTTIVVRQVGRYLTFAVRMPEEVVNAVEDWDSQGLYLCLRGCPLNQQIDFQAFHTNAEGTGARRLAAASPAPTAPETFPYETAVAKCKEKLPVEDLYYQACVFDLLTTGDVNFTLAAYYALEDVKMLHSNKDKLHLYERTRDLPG
# Assays:
# Rat RGMa-His (rat) = biological target: T1, Rat RGMa-His (rat); assay: BIAcore
# hRGMa-Fc = biological target: T2, hRGMa-Fc; assay: HCS (high content analysis) live cell binding inhibition assay: Fc-tagged RGMa complexed with Cy3-labeled anti-Fc antibody, preincubated with the antibody, then added to cells for 30 min at 37 C; blocked: RGMa-Fc binding to SH-SY5Y cells; n=2
# Description: FIGS. 13A-F and 14A-H illustrate the neutralizing effects of the specified antibodies on RGMa binding to neuronal cells using a live cell binding assay on SH-SY5Y cells and rat hippocampal primary neurons. Fc-tagged RGMa and Cy3-labeled anti-Fc antibodies are complexed at 4° C. for 60 minutes, followed by an incubation of the complex with a blocking antibody at room temperature for 10 minutes. The RGMa-Cy3 +antibody complex is then added to cells together with Hoechsts 33342 for 30 minutes at 37° C. to allow binding onto the cells. The cell are then washed twice in culture medium and fixed with PFH. Cell imaging is performed with the BD Pathway and images analyzed with the Definiens Architect software.
binder,measurement,setting,value
"AE12-1-V (antibody, V domains shown) VH: EVQLVQSGAEVKKPGASVKVSCKASGYTFTSHGISWVRQAPGQGLDWMGWISPYSGNTNYAQKLQGRVTMTTDTSTSTAYMELSSLRSEDTAVYYCARVGSGPYYYMDVWGQGTLVTVSS VL: QSALTQPRSVSGSPGQSVTISCTGTSSSVGDSIYVSWYQQHPGKAPKLMLYDVTKRPSGVPDRFSGSKSGNTASLTISGLQAEDEADYYCVSYAGTDTLFGGGTKVTVL",kon,Rat RGMa-His (rat),22000 M⁻¹ s⁻¹
"AE12-6 (antibody, V domains shown, lambda light chain) VH: EVQLVQSGAEVKKPGASVKVSCKASGYIFTNYDIAWVRQAPGQGLEWMGWMNPDSGNTGFVQKFKGRVTATSNTDITTAYMELSSLTSEDTAVYYCARDRFGSGYDLDHWGQGTLVTVSS VL: SYELTQPPSVSVAPGQTARITCGGNNIGSKSVHWYQQKPGQAPVLVVYDDSDRPSGIPERFSGSNSGNTATLTISRVEAGDEADYYCQVWGSSSDHYVFGTGTKVTVL",IC50 (read off the curve),hRGMa-Fc,~10 nM
